From US20250073239A1, “COMBINATION OF AN IMMUNOCYTOKINE COMPRISING IL-12 AND A KINASE INHIBITOR” (PHILOGEN S.P.A., priority 2022, published 2025)

Legend:
[1] = rodents, cited from earlier work
[2] = humans, patients with cancer; cited from earlier work
[3] = Toxicity monitored by daily body weighing of MC-38 tumor-bearing mice; settings: for weight loss: alone or with Ruxolitinib 75 mg/kg s.c., day 8, 11, 14
Experimental: When tumors reached an average of about 50-100 mm^3, MC-38 tumor-bearing mice were randomized, and different treatments were started. Eight different groups (4/5 mice per group) received the following treatments: • (i) i.v. vehicle on day 8, 11 and 14 after tumor implantation • (ii) s.c. Ruxolitinib (75 mg/kg) on day 8, 11 and 14 after tumor implantation • (iii) i.v. L19-IL12 (0.6 mg/kg) on day 8, 11 and 14 after tumor implantation • (iv) i.v. L19-IL12 (0.9 mg/kg) on day 8, 11 and 14 after tumor implantation • (v) i.v. L19-IL12 (1.2 mg/kg) on day 8, 11 and 14 after tumor implantation • (vi) s.c Ruxolitinib (75 mg/kg) and i.v. L19-IL12 (0.6 mg/kg) on day 8, 11 and 14 after tumor implantation • (vii) s.c. Ruxolitinib (75 mg/kg) and i.v. L19-IL12 (0.9 mg/kg) on day 8, 11 and 14 after tumor implantation • (viii) s.c. Ruxolitinib (75 mg/kg) and i.v. L19-IL12 (1.2 mg/kg) on day 8, 11 and 14 after tumor implantation
Ruxolitinib was always administered 10 minutes prior the subsequent administration of L19-IL12 at the three different dose levels.
Toxicity of the different treatments was monitored by daily body weighing and general appearance of the animals.

[4] = tested on: MC-38 cells, derived from C57BL/6 murine colon adenocarcinoma cells; assay: Therapy experiments: tumour volume in MC-38 tumor-bearing mice; format: in vivo, C57BL/6 mice; settings: on day 8, 11 and 14
Experimental: MC-38 cells, derived from C57BL/6 murine colon adenocarcinoma cells were cultured in DMEM medium supplemented with Fetal Bovine Serum (10%) and antibiotic-antimycotic (1%) following the supplier's protocol and kept in culture for no longer than 10 passages with a confluence lower than 90%. Eight-week-old female C57BL/6 mice were used for the experiment.
MC-38 cells were grown to 80% confluence and detached with Trypsin-EDTA 0.05%. Cells were washed, counted and re-suspended in HBSS to a final concentration of 1×10^7 cells ml^−1. Aliquots of 1×10^6 cells (100 μl of the suspension) were injected subcutaneously in the right flank of each animal. Tumor volume was determined with the following formula: (length×width^2×0.5) measured with a caliper.
Preparation of the tumor cells and tumor implantation have been done as described above in chapters 2.1 and 2.2.

Molecule: N#CC[C@H](C1CCCC1)n1cc(-c2ncnc3[nH]ccc23)cn1 [Ruxolitinib]
- blood half-life ([1]; after injection): less than 1 hour
- time to complete wash-out from blood [1]: ≤ 24 h

Molecule: recombinant human IL-12: recombinant human interleukin-12 cytokine tested in clinical trials in patients with cancer
- maximal tolerated dose [2]: 0.5 μg/kg of body weight

B1: L19-IL12: fusion protein of the anti-EDB L19 antibody in single chain diabody format fused to single-chain murine IL-12 (SEQ ID NO 19) (protein)
chain: MWELEKDVYVVEVDWTPDAPGETVNLTCDTPEEDDITWTSDQRHGVIGSGKTLTITVKEFLDAGQYTCHKGGETLSHSHLLLHKKENGIWSTEILKNFKNKTFLKCEAPNYSGRFTCSWLVQRNMDLKFNIKSSSSSPDSRAVTCGMASLSAEKVTLDQRDYEKYSVSCQEDVTCPTAEETLPIELALEARQQNKYENYSTSFFIRDIIKPDPPKNLQMRPLKNSQVEVSWEYPDSWSTPHSYFSLKFFVRIQRKKEKMKETEEGCNQKGAFLVERTSTEVQCKGGNVCVQAQDRYYNSSCSKWACVPCRVRSGGGGSGGGGSGGGGSRVIPVSGPARCLSQSRNLLKTTDDMVKTAREKLKHYSCTAEDIDHEDITRDQTSTLKTCLPLELHKNESCLATRETSSTTRGSCLPPQKTSLMMTLCLGSIYEDLKMYQTEFQAINAALQNHNHQQIILDKGMLVAIDELMQSLNHNGETLRQKPPVGEADPYRVKMKLCILLHAFSTRVVTINRVMGYLSSAGSADGEVQLLESGGGLVQPGGSLRLSCAASGFTFSSFSMSWVRQAPGKGLEWVSSISGSSGTTYYADSVKGRFTISRDNSKNTLYLQMNSLRAEDTAVYYCAKPFPYFDYWGQGTLVTVSSGSSGGEIVLTQSPGTLSLSPGERATLSCRASQSVSSSFLAWYQQKPGQAPRLLIYYASSRATGIPDRFSGSGSGTDFTLTISRLEPEDFAVYYCQQTGRIPPTFGQGTKVEIKSSSSGSSSSGSSSSGEVQLLESGGGLVQPGGSLRLSCAASGFTFSSFSMSWVRQAPGKGLEWVSSISGSSGTTYYADSVKGRFTISRDNSKNTLYLQMNSLRAEDTAVYYCAKPFPYFDYWGQGTLVTVSSGSSGGEIVLTQSPGTLSLSPGERATLSCRASQSVSSSFLAWYQQKPGQAPRLLIYYASSRATGIPDRFSGSGSGTDFTLTISRLEPEDFAVYYCQQTGRIPPTFGQGTKVEIK
modifications: immunocytokine sequence
- weight loss ([3]; L19-IL12 0.6 mg/kg i.v.): caused a weight loss
- weight loss ([3]; L19-IL12 0.9 mg/kg i.v.): more severe toxicity
- weight loss ([3]; L19-IL12 […] i.v.): more severe toxicity
- weight loss ([3]; high dose L19-IL12 2.4 or 3 mg/kg i.v.): > 15%
- outcome of the weight loss for the animals ([3]; high dose L19-IL12 2.4 or 3 mg/kg monotherapy): sacrifice of the mice for ethical reasons
- tumor growth (antitumor activity) ([4]; L19-IL12 0.6, 0.9 or […] i.v., alone or with Ruxolitinib 75 mg/kg s.c. 10 min before): effectively prevented tumor growth
- tumor growth (antitumor activity) ([4]; high dose L19-IL12 2.4 or 3 mg/kg i.v., alone or with Ruxolitinib 75 mg/kg s.c.): effectively prevented tumor growth
